Assay results published in patent publication US20040077045A1.

Target: T1, HLA-DR13 (DRB1*1301), purified (human)
T1 chain 1: not shown
T1 chain 2: not shown
Test: competition on purified HLA-DR (DRB1*1301) against biotinylated B1 21-36 (200 nM, pH 4.5); fluorescence assay

IC50: 390 nM
Binder: TERVRLVTRHIYNREE (modifications not checked) [B1 21-36 (…), unlabeled reference peptide]
